These results are taken from PMC12305957.

The first data set addresses T1, Abf1 (Saccharomyces cerevisiae) (UniProt P14164).
T1 sequence: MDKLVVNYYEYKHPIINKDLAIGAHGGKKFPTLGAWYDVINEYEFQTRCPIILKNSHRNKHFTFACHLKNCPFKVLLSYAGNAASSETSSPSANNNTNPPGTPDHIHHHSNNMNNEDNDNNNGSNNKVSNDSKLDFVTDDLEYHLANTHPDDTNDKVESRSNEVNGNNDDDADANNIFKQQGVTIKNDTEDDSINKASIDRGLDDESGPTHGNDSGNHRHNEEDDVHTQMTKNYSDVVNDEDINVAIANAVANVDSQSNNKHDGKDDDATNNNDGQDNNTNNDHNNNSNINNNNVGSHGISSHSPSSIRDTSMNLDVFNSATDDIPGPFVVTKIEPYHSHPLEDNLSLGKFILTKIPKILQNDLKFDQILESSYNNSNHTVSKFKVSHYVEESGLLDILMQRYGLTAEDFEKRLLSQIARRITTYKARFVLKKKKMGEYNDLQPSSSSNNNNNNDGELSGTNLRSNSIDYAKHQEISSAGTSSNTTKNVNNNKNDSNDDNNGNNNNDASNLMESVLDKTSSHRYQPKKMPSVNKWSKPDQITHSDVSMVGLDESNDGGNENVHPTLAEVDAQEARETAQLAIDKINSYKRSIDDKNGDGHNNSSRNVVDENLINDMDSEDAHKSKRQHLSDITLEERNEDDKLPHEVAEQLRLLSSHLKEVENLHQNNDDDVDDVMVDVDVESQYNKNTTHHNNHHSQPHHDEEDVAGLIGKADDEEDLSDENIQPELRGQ
The experiment in a line: EMSA. The following applies: 11.87 mM HEPES-KOH pH 7.9, 3 mM Tris-Cl, 96.67 mM NaCl, 3.33 mM KCl, 5.3 mM MgCl2, 0.13 mM Mg acetate, 1.33 uM ZnCl2, 0.05% NP-40, 10% glycerol, 100 ug/mL BSA ….
In turn, “ACAGGATGTATATATCTGACACGTGCCTGGAGACTAGGGAGTAATCCCCTTGGCGGTTAAAACGCGGGGGACAGCGCGTACGTGCGTTTAAGCGGTGCTAGAGCTGTCTACGACCAATTGAGCGGCCTCGGCACCGGGATTCTCCAGGGCGGCCGCTTATCGTATTGCATGATATGGTGATGACCGCGGACCTGCAGGCATGCAAGCTTGAGTATTCTATAGTGTCA (double strand) [NC-80/T-T nucleosome]” came in with a Kd of 2.52 nM.
“ACAGGATGTATATATCTGACACGTGCCTGGAGACTAGGGAGTAATCCCCTTGGCGGTTAAAACGCGGGGGACAGCGCGTACGTGCGTTTAAGCGGTGCTAGAGCTGTCTACGACCAATTGAGCGGCCTCGGCACCGGGATTCTCCAGGGCGGCCGCTTATCGTATAAAGTGATAGGGTGATGACCGCGGACCTGCAGGCATGCAAGCTTGAGTATTCTATAGTGTCA (double strand) [NC-80/A3G nucleosome]”: the Kd is 2.22 nM.
Consider “ACAGGATGTATATATCTGACACGTGCCTGGAGACTAGGGAGTAATCCCCTTGGCGGTTAAAACGCGGGGGACAGCGCGTACGTGCGTTTAAGCGGTGCTAGAGCTGTCTACGACCAATTGAGCGGCCTCGGCACCGGGATTCTCCAGGGCGGCCGCTTATCGTATTGCATGATAGGGTGATGACCGCGGACCTGCAGGCATGCAAGCTTGAGTATTCTATAGTGTCA (double strand) [NC-80/T-G nucleosome]”, for which the Kd turned out to be 2.49 nM.
Sequence “ACAGGATGTATATATCTGACACGTGCCTGGAGACTAGGGAGTAATCCCCTTGGCGGTTAAAACGCGGGGGACAGCGCGTACGTGCGTTTAAGCGGTGCTAGAGCTGTCTACGACCAATTGAGCGGCCTCGGCACCGGGATTCTCCAGGGCGGCCGCTAATCGTATTGCATGATATGGTGATGACCGCGGACCTGCAGGCATGCAAGCTTGAGTATTCTATAGTGTCA (double strand) [NC-80/A-T nucleosome]” showed a Kd of 2.39 nM. This Kd and that of the sequence before are within 1.5-fold of each other.

Another data set concerns the target T2, Reb1 (Saccharomyces cerevisiae) (UniProt P21538).
T2 sequence: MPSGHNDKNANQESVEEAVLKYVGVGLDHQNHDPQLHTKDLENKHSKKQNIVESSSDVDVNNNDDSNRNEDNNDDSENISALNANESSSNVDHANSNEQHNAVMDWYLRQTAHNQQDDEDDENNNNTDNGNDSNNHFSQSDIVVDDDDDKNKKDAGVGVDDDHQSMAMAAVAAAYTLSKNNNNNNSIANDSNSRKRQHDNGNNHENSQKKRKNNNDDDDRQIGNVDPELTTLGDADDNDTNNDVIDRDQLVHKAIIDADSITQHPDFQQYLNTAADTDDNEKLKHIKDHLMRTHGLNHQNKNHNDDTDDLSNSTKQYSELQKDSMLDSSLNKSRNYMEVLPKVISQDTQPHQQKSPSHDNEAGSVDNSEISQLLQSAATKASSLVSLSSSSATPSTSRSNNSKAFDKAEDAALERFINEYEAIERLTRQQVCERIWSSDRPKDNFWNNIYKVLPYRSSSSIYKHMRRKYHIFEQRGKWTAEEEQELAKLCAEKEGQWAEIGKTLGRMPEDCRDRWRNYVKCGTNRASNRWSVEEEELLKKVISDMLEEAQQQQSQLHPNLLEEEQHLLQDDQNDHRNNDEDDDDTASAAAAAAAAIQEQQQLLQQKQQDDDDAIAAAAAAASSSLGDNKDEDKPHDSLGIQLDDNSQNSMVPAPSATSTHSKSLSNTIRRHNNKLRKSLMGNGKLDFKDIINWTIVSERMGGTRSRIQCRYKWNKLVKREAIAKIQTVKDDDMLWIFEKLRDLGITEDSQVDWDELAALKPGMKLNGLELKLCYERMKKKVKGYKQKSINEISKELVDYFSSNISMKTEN
The experiment in a line: EMSA. The following applies: 11.87 mM HEPES-KOH pH 7.9, 3 mM Tris-Cl, 96.67 mM NaCl, 3.33 mM KCl, 5.3 mM MgCl2, 0.13 mM Mg acetate, 1.33 uM ZnCl2, 0.05% NP-40, 10% glycerol, 100 ug/mL BSA ….
Turning to “ACAGGATGTATATATCTGACACGTGCCTGGAGACTAGGGAGTAATCCCCTTGGCGGTTAAAACGCGGGGGACAGCGCGTACGTGCGTTTAAGCGGTGCTAGAGCTGTCTACGACCAATTGAGCGGCCTCGGCACCGGGATTCTCCAGGGCGGCCGCTCGGGTAAAGCATCACCATGGTGATGACCGCGGACCTGCAGGCATGCAAGCTTGAGTATTCTATAGTGTCA (double strand) [NC-80/T-AG nucleosome]”, the Kd came out at 5.94 nM.
In turn, “ACAGGATGTATATATCTGACACGTGCCTGGAGACTAGGGAGTAATCCCCTTGGCGGTTAAAACGCGGGGGACAGCGCGTACGTGCGTTTAAGCGGTGCTAGAGCTGTCTACGACCAATTGAGCGGCCTCGGCACCGGGATTCTCCAGGGCGGCCGGACGGGTAACGCATCACCATGGTGATGACCGCGGACCTGCAGGCATGCAAGCTTGAGTATTCTATAGTGTCA (double strand) [NC-80/G-TC nucleosome]” showed a Kd of 1.11 nM.
For “ACAGGATGTATATATCTGACACGTGCCTGGAGACTAGGGAGTAATCCCCTTGGCGGTTAAAACGCGGGGGACAGCGCGTACGTGCGTTTAAGCGGTGCTAGAGCTGTCTACGACCAATTGAGCGGCCTCGGCACCGGGATTCTCCAGGGCGGCCGCCCGGGTAACGCATCACCATGGTGATGACCGCGGACCTGCAGGCATGCAAGCTTGAGTATTCTATAGTGTCA (double strand) [NC-80/G-GG nucleosome]”, the equilibrium dissociation constant (Kd) stood at 1.06 nM. The Kd values of the last two sequences are within 1.5-fold of each other.
“ACAGGATGTATATATCTGACACGTGCCTGGAGACTAGGGAGTAATCCCCTTGGCGGTTAAAACGCGGGGGACAGCGCGTACGTGCGTTTAAGCGGTGCTAGAGCTGTCTACGACCAATTGAGCGGCCTCGGCACCGGGATTCTCCAGGGCGGCCGGCCGGGTAACGCATCACCATGGTGATGACCGCGGACCTGCAGGCATGCAAGCTTGAGTATTCTATAGTGTCA (double strand) [NC-80/G-GC nucleosome]” returned a Kd of 1.07 nM.
